Test results reported in PMC5820116 (SLAS discovery : advancing life sciences R & D, 2017).

Substrate: Nc1ncnc2c1ncn2[C@@H]1O[C@H](COP(=O)(O)OP(=O)(O)OP(=O)(O)O)[C@@H](O)[C@H]1O
Assay: ATP:PPi exchange steady-state kinetics
Assay type: biochemical, Pseudomonas aeruginosa
Details: Mg2+ active region of the catalytic domain formed by the three structural motifs

B1: Aspartyl-tRNA synthetase (AspRS) (Pseudomonas aeruginosa PAO1) (protein)
chain: MMRSHYCGQLNESLDGQEVTLCGWVHRRRDHGGVIFLDVRDREGLAQVVFDPDRAETFAKADRVRSEFVVKITGKVRLRPEGARNPNMASGSIEVLGYELEVLNQAETPPFPLDEYSDVGEETRLRYRFIDLRRPEMAAKLKLRARITSSIRRYLDDNGFLDVETPILGRPTPEGARDYLVPSRTYPGHFFALPQSPQLFKQLLMVAGFDRYYQIAKCFRDEDLRADRQPEFTQIDIETSFLDESDIIGITEKMVRQLFKEVLDVEFDEFPHMPFEEAMRRYGSDKPDLRIPLELVDVADQLKEVEFKVFSGPANDPKGRVAALRVPGAASMPRSQIDDYTKFVGIYGAKGLAYIKVNERAKGVEGLQSPIVKFIPEANLNVILDRVGAVDGDIVFFGADKAKIVCDALGALRIKVGHDLKLLTREWAPMWVVDFPMFEENDDGSLSALHHPFTSPKCTPAELEANPGAALSRAYDMVLNGTELGGGSIRIHDKSMQQAVFRVLGIDEAEQEEKFGFLLDALKYGAPPHGGLAFGLDRLVMLMTGASSIREVIAFPKTQSAGDVMTQAPGSVDGKALRELHIRLREQPKAE
  Km: 495 µM
